Sequences and labels used below:
T1: Cynomolgus VE-PTP (Cyno PTP-β) containing first eight FN3 repeats with C-terminal His10 tag (Cyno Beta ½ … (cynomolgus, UniProt P23467 25-817 (human entry)))
T1 construct: Produced in HEK293 cells; it was not cut off; also called Cyno VE-PTP
T1 chain: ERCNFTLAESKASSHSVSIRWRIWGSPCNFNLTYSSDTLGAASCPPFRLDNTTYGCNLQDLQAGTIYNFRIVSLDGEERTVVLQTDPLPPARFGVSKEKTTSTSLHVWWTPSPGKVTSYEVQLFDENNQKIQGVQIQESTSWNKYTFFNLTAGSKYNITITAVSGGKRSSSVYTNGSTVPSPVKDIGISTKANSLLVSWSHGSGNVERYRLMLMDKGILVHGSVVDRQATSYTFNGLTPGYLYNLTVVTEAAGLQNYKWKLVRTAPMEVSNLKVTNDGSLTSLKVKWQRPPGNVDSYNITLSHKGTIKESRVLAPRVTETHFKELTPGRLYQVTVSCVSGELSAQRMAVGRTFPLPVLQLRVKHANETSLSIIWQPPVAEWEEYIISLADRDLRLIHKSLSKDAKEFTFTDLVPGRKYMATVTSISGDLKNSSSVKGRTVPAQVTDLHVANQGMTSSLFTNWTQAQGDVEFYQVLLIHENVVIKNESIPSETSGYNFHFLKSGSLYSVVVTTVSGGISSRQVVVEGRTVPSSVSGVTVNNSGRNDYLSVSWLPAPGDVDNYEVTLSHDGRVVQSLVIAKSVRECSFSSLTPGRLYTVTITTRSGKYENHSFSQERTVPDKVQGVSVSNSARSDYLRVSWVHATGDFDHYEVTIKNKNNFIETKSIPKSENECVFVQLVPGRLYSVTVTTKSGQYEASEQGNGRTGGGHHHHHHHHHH

T2: Human VE-PTP (HPTP-β) containing first eight FN3 repeats with C-terminal His6 tag (Human ½ VE-PTP ECD) (human, UniProt P23467 23-820)
T2 construct: Produced in HEK293 cells and purified by the His tag; it was not cut off; also called Human Beta ½ ECD
T2 sequence: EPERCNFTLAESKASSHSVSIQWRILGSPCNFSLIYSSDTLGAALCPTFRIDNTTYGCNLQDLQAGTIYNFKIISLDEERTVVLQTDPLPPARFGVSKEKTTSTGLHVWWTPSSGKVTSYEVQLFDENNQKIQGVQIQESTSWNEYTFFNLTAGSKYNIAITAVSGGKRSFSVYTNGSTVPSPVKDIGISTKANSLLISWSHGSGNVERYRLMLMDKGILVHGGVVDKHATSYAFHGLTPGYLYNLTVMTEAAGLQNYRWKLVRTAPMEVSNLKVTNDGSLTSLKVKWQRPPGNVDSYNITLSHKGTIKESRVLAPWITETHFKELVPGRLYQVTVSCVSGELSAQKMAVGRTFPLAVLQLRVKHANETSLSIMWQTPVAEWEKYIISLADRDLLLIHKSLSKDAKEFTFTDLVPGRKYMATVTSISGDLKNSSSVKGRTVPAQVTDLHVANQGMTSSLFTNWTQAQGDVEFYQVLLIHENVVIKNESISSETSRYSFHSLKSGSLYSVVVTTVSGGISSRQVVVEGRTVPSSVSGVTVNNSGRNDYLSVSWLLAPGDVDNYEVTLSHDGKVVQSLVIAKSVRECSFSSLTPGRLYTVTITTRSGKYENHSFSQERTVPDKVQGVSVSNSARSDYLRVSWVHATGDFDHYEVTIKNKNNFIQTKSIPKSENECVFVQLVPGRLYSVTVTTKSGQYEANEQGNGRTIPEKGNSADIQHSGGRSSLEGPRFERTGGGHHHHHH

B1: humanized R15E6 variant HC2LC1 (antibody, human IgG4 S228P, kappa, V domains shown)
VH: EVQLVESGGGLVQPGGSLRLSCAASGFTFNANAMNWVRQAPGKGLEWVGRIRTKSNNYATYYAGSVKDRFTISRDDSKNSLYLQMNSLKTEDTAVYYCVRDYYGSSAWITYWGQGTLVTVSS
VL: DVVMTQSPSFLSASVGDRVTITCKASQHVGTAVAWYQQRPGKAPKLLIYWASTRHTGVPSRFSGSGSGTEFTLTISSLQPEDFATYFCQQYSSYPFTFGGGTKLEIKR
notes: Human IgG4 (S228P) / kappa, expressed in CHO cells; Signal peptides left out by range; also called VH2-VL1
B2: humanized R15E6 variant HC2LC2 (antibody, human IgG4 S228P, kappa, V domains shown)
VH: B1 VH
VL: DIVMTQSPDSLAVSLGERATINCKASQHVGTAVAWYQQKPGQPPKLLIYWASTRHTGVPDRFSGSGSGTDFTLTISSLQAEDVAVYYCQQYSSYPFTFGQGTKLEIKR
notes: Human IgG4 (S228P) / kappa, expressed in CHO cells; Signal peptides left out by range; also called VH2-VL2
B3: humanized R15E6 variant HC2LC3 (antibody, human IgG4 S228P, kappa, V domains shown)
VH: B1 VH
VL: B1 VL with V2I, V3Q, S9F, F10S, R39K, E70D
notes: Human IgG4 (S228P) / kappa, expressed in CHO cells; Signal peptides left out by range; also called VH2-VL3
B4: humanized R15E6 variant HC1LC2 (antibody, human IgG4 S228P, kappa, V domains shown)
VH: B1 VH with R19K, P41S, S80T, L81A, V95A
VL: B2 VL
notes: Human IgG4 (S228P) / kappa, expressed in CHO cells; Signal peptides left out by range; also called VH1-VL2
B5: humanized R15E6 variant HC2LC4 (antibody, human IgG4 S228P, kappa, V domains shown)
VH: B1 VH
VL: B2 VL with G41E, Q100G, L104V
notes: Human IgG4 (S228P) / kappa, expressed in CHO cells; Signal peptides left out by range; also called VH2-VL4
B6: humanized R15E6 variant HC1LC4 (antibody, human IgG4 S228P, kappa, V domains shown)
VH: B1 VH with R19K, P41S, S80T, L81A, V95A
VL: B2 VL with G41E, Q100G, L104V
notes: Human IgG4 (S228P) / kappa, expressed in CHO cells; Signal peptides left out by range; also called VH1-VL4
B7: humanized R15E6 variant HC3LC4 (antibody, human IgG4 S228P, kappa, V domains shown)
VH: B1 VH with G16R, A23T, S80I, L81A
VL: B2 VL with G41E, Q100G, L104V
notes: Human IgG4 (S228P) / kappa, expressed in CHO cells; Signal peptides left out by range; also called VH3-VL4
B8: mouse/human chimeric antibody HC0LC0 (antibody, human IgG4 S228P, kappa, V domains shown)
VH: EVQLVETGGGLVQPKGSMKLSCAASGFTFNANAMNWIRQAPGKGLEWVARIRTKSNNYATYYAGSVKDRFTISRDDAQNMLYLQMNDLKTEDTAMYYCVRDYYGSSAWITYWGQGTLVTVSA
VL: DIVMTQSHKFMSTSVGDRVSITCKASQHVGTAVAWYQQKPDQSPKQLIYWASTRHTGVPDRFTGSGSGTDFTLTISNVQSEDLADYFCQQYSSYPFTFGSGTKLEIKR
notes: Murine variable domains of R15E6 on human IgG4 (S228P) and kappa constant domains, expressed in CHO cells; also called VH0-VL0

Substitutions are numbered along the chain they refer to. Names may count otherwise.

For the first assay, the target named is T1, Cynomolgus VE-PTP (Cyno PTP-β) …. The experiment in a line: ELISA, coated antigen. As for the experimental part: HPTP-β, cyno PTP-β, and HPTP-η proteins were coated onto ELISA plates in coating buffer (pH 9.4). Each protein was prepared as a 1 μg/mL protein stock in 50 mM carbonate-bicarbonate. The coated proteins were aliquoted at a volume of 100 μL/well into sterile, clear, polystyrene, flat bottom 96-well plates. The plates were incubated overnight at 4° C. After overnight incubation, the plates were washed 3× with 200 μL/well of 1×PBS-T (PBS with 0.05% Tween 20). The immunizing protein was human VE-PTP (HPTP-β). The plates were then blocked with 200 μL/well of 5% blotting grade blocker non-fat dry milk in PBS-T and incubated for 1 hr at room temperature.
Primary antibody samples were prepared for the humanized variants and the negative control, anti-hCD20-hIgG4S228P, using 1 μg/well in 5% blotting grade blocker non-fat dry milk in PBS. Samples were tested in triplicates. The Fab antibody fragments were treated as the IgG antibodies. The plates were then washed 3× with PBS-T and 100 μL of primary antibody preparation was added in each well. The plates were then incubated for 1 hr at room temperature.
Then, […] Ultra TMB-ELISA was added in each well, and the plate was allowed to develop for 5 min at room temperature. After 5 min, 50 μL of 2 M sulfuric acid was added to each well to stop the reaction. The plates were then analyzed on a plate reader at an absorbance wavelength of 450 nm.
In general terms: ELISA stands for enzyme-linked immunosorbent assay.
As to B1, the binding result was “no binding (tested: <=0.2; 1 µg/well)”.

On to B2, for which the binding result is listed as “no binding (tested: <=0.2; 1 µg/well)”.

In the case of B3, the binding result was “no binding (tested: <=0.2; 1 µg/well)”.

In the case of B4, the binding result is recorded as “no binding (tested: <=0.2; 1 µg/well)”.

As for B5, the binding result was “no binding (tested: <=0.2; 1 µg/well)”.

In the case of B6, the binding result was “no binding (tested: <=0.2; 1 µg/well)”.

For the molecule B7, the binding result was “no binding (tested: <=0.2; 1 µg/well)”.

For B8, the binding result is recorded as “no binding (tested: <=0.2; 1 µg/well)”.

The next assay addresses T2, Human VE-PTP (HPTP-β) containing first …. Nature of the assay: SPR (Biacore 3000), antibody captured on anti-human IgG, antigen as analyte 25-0 nM. As for the experimental part: (§1) Samples of each variant were further assessed by Biacore analysis to determine the binding affinity. Antibody binding experiments were performed on Biacore 3000™ at 25° C. Assay buffer: 10 mM HEPES buffer (pH 7.4), 150 mM NaCl, 3 mM EDTA, 0.05% P20 (polyoxyethylenesorbitan). […] Conjugation buffer: 10 mM sodium acetate buffer (pH 5). The flow rate used for capturing the ligand was 5 μL/min. The flow rate for the kinetic analysis was 50 μL/min. Flow cell 1 and […] of the CM5 chip were coated with maximum amounts of goat anti-human IgG. Approximately 150 RU of the test antibody was captured on flow cell 2, 3, and 4 as indicated. The antigen was flowed over the chip. Binding of the antigen to the antibodies was monitored in real time. The KD was determined from the observed kₒₙ and koff values.
Background: SPR reads the build-up and loss of mass on a sensor chip optically.
By Kd is commonly meant a measure of binding affinity in units of concentration. Low readings indicate a tighter complex, high ones a looser complex. As a reminder, the koff is a measure of how fast the partners let go of each other. A higher koff goes with fast dissociation. The kon is the second-order rate constant of association. Higher therefore signals faster complex formation. The molecule B2 registered a Ka of 1.98e+07 M⁻¹, an equilibrium dissociation constant (Kd) of 50.6 nM, a koff of 0.00215 s⁻¹ and a kon of 42500 M⁻¹ s⁻¹.

B3 had a Ka of 6.75e+08 M⁻¹, a Kd of 1.48 nM, a koff of 0.00123 s⁻¹ and a kon of 890000 M⁻¹ s⁻¹.

B7 had a Ka of 1.23e+08 M⁻¹, a Kd of 8.14 nM, a koff of 0.00109 s⁻¹ and a kon of 134000 M⁻¹ s⁻¹.

Another assay has the same target. The experiment in a line: SPR (Biacore 3000), antibody captured on anti-human IgG, antigen as analyte 50-0 nM. The procedure: as §1
B1 had a Ka of 1.5e+10 M⁻¹, a Kd of 0.0668 nM, a koff of 7.23e-05 s⁻¹ and a kon of 1.08e+06 M⁻¹ s⁻¹.

In the case of B4, the Ka amounted to 4.33e+08 M⁻¹; the affinity, expressed as Kd, was 2.31 nM; the koff is 0.000947 s⁻¹; the kon is 410000 M⁻¹ s⁻¹.

The molecule B5 came in with a Ka of 2.3e+09 M⁻¹, a Kd of 0.436 nM, a koff of 0.000429 s⁻¹ and a kon of 986000 M⁻¹ s⁻¹.

The molecule B6 showed a Ka of 4.44e+08 M⁻¹, a Kd of 2.25 nM, a koff of 0.00134 s⁻¹ and a kon of 596000 M⁻¹ s⁻¹.

Molecule B8 displayed a Ka of 3.18e+08 M⁻¹, a Kd of 3.14 nM, a koff of 0.000656 s⁻¹ and a kon of 209000 M⁻¹ s⁻¹.

Source of the values: patent publication US20190077863A1 (AERPIO PHARMACEUTICALS, published 2019).
